Source: the supplement of paper PMC10567573

B1: HNF4A (parent)
chain: RFSRQCVVDKDKRNQCRYCRLKKC

Variants of: B1
Test: protein stability index of a GFP-peptide fusion (GPS, HEK-293T) (PSI 1-6); higher = more stable
Details: c terminus: a fixed tail appended
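Also: lentivirally expressed fusions sorted by FACS into six bins by GFP to DsRed ratio, PSI derived from sequencing read proportions per bin multiplied by bin number.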

| Variant | protein stability index |
| --- | --- |
| RFSRQCVVDKCKRNQCRYCRLKKC | 3.51 |
| RFSRQCVVDKAKRNQCRYCRLKKC | 2.28 |
| RFSRQCVVDKEKRNQCRYCRLKKC | 2.19 |
| RFSRQCWVDKDKRNQCRYCRLKKC | 2.47 |
| RFSRQCKVDKDKRNQCRYCRLKKC | 2.6 |
| RFSRQCNVDKDKRNQCRYCRLKKC | 2.21 |
| RFSRQCTVDKDKRNQCRYCRLKKC | 2.73 |
| RFSRQCPVDKDKRNQCRYCRLKKC | 2.96 |
| RFSRQCRVDKDKRNQCRYCRLKKC | 2.4 |
| RFSRQCIVDKDKRNQCRYCRLKKC | 2.13 |
| RFSRQCLVDKDKRNQCRYCRLKKC | 2.48 |
| RFSRQCHVDKDKRNQCRYCRLKKC | 2.38 |
| RFSRQCAVDKDKRNQCRYCRLKKC | 2.4 |
| RFSRQCSVDKDKRNQCRYCRLKKC | 2.1 |
| RFSRQCFVDKDKRNQCRYCRLKKC | 1.94 |
| RFSRQCQVDKDKRNQCRYCRLKKC | 2.05 |
| RFSRQCGVDKDKRNQCRYCRLKKC | 2.37 |
| RFSRQCCVDKDKRNQCRYCRLKKC | 2.62 |
| RFSRQCYVDKDKRNQCRYCRLKKC | 2.93 |
| RFSRQCMVDKDKRNQCRYCRLKKC | 2.41 |
| RFSRQCEVDKDKRNQCRYCRLKKC | 2.05 |
| RFSRQCDVDKDKRNQCRYCRLKKC | 4.05 |
| RFSRQKVVDKDKRNQCRYCRLKKC | 3.17 |
| RFSRQLVVDKDKRNQCRYCRLKKC | 1.99 |

| Variant | protein stability index |
| --- | --- |
| RFSRQNVVDKDKRNQCRYCRLKKC | 2.86 |
| RFSRQYVVDKDKRNQCRYCRLKKC | 2.32 |
| RFSRQHVVDKDKRNQCRYCRLKKC | 2.77 |
| RFSRQWVVDKDKRNQCRYCRLKKC | 1.29 |
| RFSRQIVVDKDKRNQCRYCRLKKC | 2.33 |
| RFSRQPVVDKDKRNQCRYCRLKKC | 2.72 |
| RFSRQTVVDKDKRNQCRYCRLKKC | 2.29 |
| RFSRQEVVDKDKRNQCRYCRLKKC | 2.82 |
| RFSRQQVVDKDKRNQCRYCRLKKC | 3.36 |
| RFSRQRVVDKDKRNQCRYCRLKKC | 2.6 |
| RFSRQSVVDKDKRNQCRYCRLKKC | 2.72 |
| RFSRQMVVDKDKRNQCRYCRLKKC | 2 |
| RFSRQGVVDKDKRNQCRYCRLKKC | 2.87 |
| RFSRQFVVDKDKRNQCRYCRLKKC | 2.89 |
| RFSRQVVVDKDKRNQCRYCRLKKC | 2.62 |
| RFSRQCVVNKDKRNQCRYCRLKKC | 2.67 |
| RFSRQCVVYKDKRNQCRYCRLKKC | 2.33 |
| RFSRQCVVCKDKRNQCRYCRLKKC | 2.69 |
| RFSRQCVVLKDKRNQCRYCRLKKC | 1.92 |
| RFSRQCVVAKDKRNQCRYCRLKKC | 2.07 |
| RFSRQCVVIKDKRNQCRYCRLKKC | 2.12 |
| RFSRQCVVVKDKRNQCRYCRLKKC | 2.33 |
| RFSRQCVVWKDKRNQCRYCRLKKC | 1.68 |
| RFSRQCVVRKDKRNQCRYCRLKKC | 3.01 |

| Variant | protein stability index |
| --- | --- |
| RFSRQCVVTKDKRNQCRYCRLKKC | 2.27 |
| RFSRQCVVQKDKRNQCRYCRLKKC | 2.78 |
| RFSRQCVVFKDKRNQCRYCRLKKC | 2.13 |
| RFSRQCVVMKDKRNQCRYCRLKKC | 3.42 |
| RFSRQCVVPKDKRNQCRYCRLKKC | 2.48 |
| RFSRQCVVKKDKRNQCRYCRLKKC | 2.13 |
| RFSRQCVVEKDKRNQCRYCRLKKC | 2.52 |
| RFSRQCVVHKDKRNQCRYCRLKKC | 3.9 |
| RFSRQCVVGKDKRNQCRYCRLKKC | 3.04 |
| RFSRQCVVSKDKRNQCRYCRLKKC | 2.92 |
| RFSRQCVVDHDKRNQCRYCRLKKC | 2.79 |
| RFSRQCVVDGDKRNQCRYCRLKKC | 2.55 |
| RFSRQCVVDSDKRNQCRYCRLKKC | 2.02 |
| RFSRQCVVDVDKRNQCRYCRLKKC | 2.47 |
| RFSRQCVVDMDKRNQCRYCRLKKC | 2.9 |
| RFSRQCVVDYDKRNQCRYCRLKKC | 2.82 |
| RFSRQCVVDPDKRNQCRYCRLKKC | 2.8 |
| RFSRQCVVDTDKRNQCRYCRLKKC | 2.41 |
| RFSRQCVVDCDKRNQCRYCRLKKC | 2.25 |
| RFSRQCVVDFDKRNQCRYCRLKKC | 1.98 |
| RFSRQCVVDEDKRNQCRYCRLKKC | 2.14 |
| RFSRQCVVDNDKRNQCRYCRLKKC | 2.43 |
| RFSRQCVVDQDKRNQCRYCRLKKC | 2.95 |
| RFSRQCVVDLDKRNQCRYCRLKKC | 2.37 |

| Variant | protein stability index |
| --- | --- |
| RFSRQCVVDDDKRNQCRYCRLKKC | 2.49 |
| RFSRQCVVDADKRNQCRYCRLKKC | 1.7 |
| RFSRQCVVDWDKRNQCRYCRLKKC | 2.59 |
| RFSRQCVVDIDKRNQCRYCRLKKC | 1.75 |
| RFSRQCVVDRDKRNQCRYCRLKKC | 2.78 |
| RFSRQCVIDKDKRNQCRYCRLKKC | 2.9 |
| RFSRQCVCDKDKRNQCRYCRLKKC | 3.21 |
| RFSRQCVNDKDKRNQCRYCRLKKC | 1.86 |
| RFSRQCVSDKDKRNQCRYCRLKKC | 2.48 |
| RFSRQCVPDKDKRNQCRYCRLKKC | 2.38 |
| RFSRQCVKDKDKRNQCRYCRLKKC | 2.86 |
| RFSRQCVWDKDKRNQCRYCRLKKC | 2.4 |
| RFSRQCVQDKDKRNQCRYCRLKKC | 2.66 |
| RFSRQCVFDKDKRNQCRYCRLKKC | 2.38 |
| RFSRQCVADKDKRNQCRYCRLKKC | 2 |
| RFSRQCVRDKDKRNQCRYCRLKKC | 3.24 |
| RFSRQCVTDKDKRNQCRYCRLKKC | 2.6 |
| RFSRQCVEDKDKRNQCRYCRLKKC | 2.19 |
| RFSRQCVDDKDKRNQCRYCRLKKC | 2.8 |
| RFSRQCVMDKDKRNQCRYCRLKKC | 2.56 |
| RFSRQCVYDKDKRNQCRYCRLKKC | 2.98 |
| RFSRQCVHDKDKRNQCRYCRLKKC | 3.87 |
